T1: cynomolgus monkey MST1R with N-terminal Flag tag, expressed on HEK293T cells (cynomolgus monkey, UniProt Q04912 27-1400 (human entry))
T1 construct: ORF cloned excluding the signal peptide region; also called cynomolgus MST1R; not shown: N-terminal Flag tag from vector pFLAG-myc-CMV-19 (Sigma)
T1 chain: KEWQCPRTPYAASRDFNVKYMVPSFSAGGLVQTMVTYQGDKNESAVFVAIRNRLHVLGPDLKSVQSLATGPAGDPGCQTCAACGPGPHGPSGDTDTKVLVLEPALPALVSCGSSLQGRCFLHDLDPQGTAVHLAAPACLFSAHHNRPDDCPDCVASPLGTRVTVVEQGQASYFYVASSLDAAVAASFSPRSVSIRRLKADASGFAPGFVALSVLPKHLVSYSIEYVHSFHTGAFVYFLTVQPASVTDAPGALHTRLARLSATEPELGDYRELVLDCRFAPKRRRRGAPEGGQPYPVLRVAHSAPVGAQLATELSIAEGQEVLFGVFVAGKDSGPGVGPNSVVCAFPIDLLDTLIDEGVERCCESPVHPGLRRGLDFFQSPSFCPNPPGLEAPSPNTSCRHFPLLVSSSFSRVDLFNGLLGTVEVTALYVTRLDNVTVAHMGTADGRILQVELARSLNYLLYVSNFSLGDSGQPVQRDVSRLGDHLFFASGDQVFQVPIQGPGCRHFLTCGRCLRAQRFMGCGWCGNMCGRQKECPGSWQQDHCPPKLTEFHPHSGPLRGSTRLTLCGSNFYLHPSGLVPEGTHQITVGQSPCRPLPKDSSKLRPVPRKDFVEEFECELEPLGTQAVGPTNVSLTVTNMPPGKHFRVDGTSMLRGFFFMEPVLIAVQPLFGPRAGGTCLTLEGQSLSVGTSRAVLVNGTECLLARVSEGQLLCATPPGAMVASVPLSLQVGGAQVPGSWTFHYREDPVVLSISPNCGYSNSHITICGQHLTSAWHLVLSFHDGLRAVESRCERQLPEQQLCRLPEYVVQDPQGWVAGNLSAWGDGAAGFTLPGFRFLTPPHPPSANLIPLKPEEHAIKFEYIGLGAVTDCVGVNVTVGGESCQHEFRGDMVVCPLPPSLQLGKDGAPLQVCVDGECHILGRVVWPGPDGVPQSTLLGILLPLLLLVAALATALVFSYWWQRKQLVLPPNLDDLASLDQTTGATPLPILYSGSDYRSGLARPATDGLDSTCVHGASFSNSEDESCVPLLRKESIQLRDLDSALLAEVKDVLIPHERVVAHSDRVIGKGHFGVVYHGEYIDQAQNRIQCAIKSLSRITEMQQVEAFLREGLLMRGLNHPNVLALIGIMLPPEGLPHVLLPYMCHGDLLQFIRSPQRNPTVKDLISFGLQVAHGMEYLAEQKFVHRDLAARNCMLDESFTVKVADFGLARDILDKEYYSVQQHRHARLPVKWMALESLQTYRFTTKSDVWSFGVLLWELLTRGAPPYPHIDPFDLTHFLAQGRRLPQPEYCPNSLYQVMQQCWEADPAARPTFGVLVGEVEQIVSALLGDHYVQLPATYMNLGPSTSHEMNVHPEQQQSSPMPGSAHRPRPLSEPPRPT

T2: recombinant MST1R-Fc fusion protein (containing 25-571 amino acid sequence of human MST1R, R&D) (human, UniProt Q04912 25-571)
T2 construct: Bought from R&D systems; also called immobilized recombinant human MST1R; not shown: Fc part of the bought fusion protein (R&D systems)
T2 chain: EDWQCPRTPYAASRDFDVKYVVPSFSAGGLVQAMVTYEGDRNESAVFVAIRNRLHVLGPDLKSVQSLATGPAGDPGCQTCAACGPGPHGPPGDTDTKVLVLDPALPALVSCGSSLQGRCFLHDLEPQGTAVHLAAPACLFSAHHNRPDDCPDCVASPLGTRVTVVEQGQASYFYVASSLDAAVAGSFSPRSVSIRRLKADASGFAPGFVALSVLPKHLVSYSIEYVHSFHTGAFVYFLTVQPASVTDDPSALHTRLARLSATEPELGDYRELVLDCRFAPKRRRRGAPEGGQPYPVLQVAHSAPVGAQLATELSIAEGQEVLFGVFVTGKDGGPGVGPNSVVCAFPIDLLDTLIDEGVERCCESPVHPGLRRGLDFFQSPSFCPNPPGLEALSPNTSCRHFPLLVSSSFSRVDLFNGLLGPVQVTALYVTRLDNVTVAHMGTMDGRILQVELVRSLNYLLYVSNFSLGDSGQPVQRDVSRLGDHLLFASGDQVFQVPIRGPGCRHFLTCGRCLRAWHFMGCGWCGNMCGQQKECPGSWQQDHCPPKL


Tests used:
[1] = target: MST1R on cells (293alpha cells transfected with pcDNA-DEST40 MST1R; endogenous on PC3, T-47D and BxPC-3 cells) (human, UniProt Q04912 25-1400); assay: cell-based or functional assay
[2] = target: T1, cynomolgus monkey MST1R with N-terminal …; assay: flow cytometry on transfected HEK293T cells, 2 ug/ml IgG1
Experimental: Cells (5×10⁵ cells/well) were incubated with Fab or IgG antibodies at the indicated concentrations in 50 μl FACS buffer (PBS, 5% FCS) for 60 min at 4° C. in round bottom 96-well culture plates (Corning). Cells were washed twice and then incubated with Fluorescein Isothiocyanate (FITC) conjugated detection antibody for 30 min at 4° C. Cells were washed again, resuspended in 0.3 ml FACS buffer and then analyzed by flow cytometry in a Cytomics FC500 (Beckman Coulter, Inc.). Data were analysed via FlowJo software (Tomy digital biology Co., Ltd.). Polyclonal goat anti-hMSP R IgG (R&D systems) or anti-FLAG M2 antibody (Sigma) was used as a positive control and MOR03207 (anti-lysozyme) antibody was used as a negative control.
FACS-analysis of MST1R ortholog-expressing cells: Human MST1R (cDNA nucleotide sequence is shown as GenBank Accession No: NM_{—}002447.2), cynomolgus monkey MST1R and mouse MST1R (cDNA nucleotide sequence is shown as GeneBank Accession No: NM_{—}009074.1) expression vector containing N-terminal Flag tag (pFLAG-myc-CMV-19, Sigma) were constructed. cDNA encoding cynomolgus monkey MST1R was amplified by PCR using cynomolgus monkey stomach cDNA as a template with forward and reverse primers having nucleotide sequences of SEQ ID NO: 34 and 35, respectively. By sequencing analysis of PCR product, the cynomolgus MST1R ORF nucleotide sequence was identified as shown in SEQ ID NO: 36. The corresponding amino acid sequence was shown in SEQ ID NO: 37. Then human, cynomolgus monkey and mouse MST1R ORF cDNA, excluding signal peptide regions, were amplified using respective forward and reverse primers having nucleotide sequences of SEQ ID NO: 38 and 39 (human), 40 and 41 (cynomolgus monkey), and 42 and 43 (mouse) with appropriate cloning sites and then cloned into pFLAG-myc-CMV-19. An amplified human MST1R fragment encodes amino acids corresponding to GenBank Accession No: NP_{—}002438.2 (SEQ ID NO: 45). A Mouse MST1R fragment encodes amino acids corresponding to GenBank Accession No: NP_{—}033100.1 (SEQ ID NO: 47) except for those amino acid differences at positions: 688 (Leu to Pro), 713 (Ile to Val), 714 (Ala to Gly) and 719 (Ala to Val). These expression vectors were transfected into HEK293T cells. For FACS-analysis, cells were incubated with 2 μg/ml primary antibodies followed by incubation with FITC-labeled secondary antibody as described above.

[3] = target: T2, recombinant MST1R-Fc fusion protein …; assay: Solution Equilibrium Titration (SET, ECL based), Fab
[4] = target: T2, recombinant MST1R-Fc fusion protein …; assay: SPR (Biacore 3000), Fab over directly immobilized MST1R-Fc
Experimental: With reference to Table 1, the affinity of MOR X antibodies was measured by surface plasmon resonance (Biacore) on immobilized recombinant human MST1R. The Biacore studies were performed on directly immobilized antigen.
The kinetic constants kₒₙ and koff were determined with serial dilutions of the respective Fab binding to covalently immobilized MST1R-Fc fusion protein (R&D systems) using the BIAcore 3000 instrument (Biacore). For covalent antigen immobilization standard EDC-NHS amine coupling chemistry was used. For direct coupling of MST1R-Fc fusion protein CM5 sensor chips (Biacore) were coated with ˜600-700 RU in 10 mM acetate buffer, pH 4.5. For the reference flow cell a respective amount of HSA (human serum albumin) was used. Kinetic measurements were done in PBS (136 mM NaCl, 2.7 mM KCl, 10 mM Na₂HPO₄, 1.76 mM KH₂PO₄ pH 7.4) at a flow rate of 20 μl/min using Fab concentration range from 15.6-500 nM. Injection time for each concentration was 1 min, followed by 3 min dissociation phase. For regeneration […] 10 mM HCl was used. All sensograms were globally fitted using BIA evaluation software 3.2 (Biacore).

[5] = target: T2, recombinant MST1R-Fc fusion protein …; assay: Solution Equilibrium Titration (SET, ECL based), Fab; SET (Fab), in solution; not Biacore on immobilized antigen

Row | Binder | Reporter assay IC50 (ng/ml); Elk1 luciferase reporter gene assay in the presence of 100 ng/ml MSP [1] [ng/mL] | binding result [2] | Kd [3] [nM] | Kd [4] [nM] | Kd [5] [nM]
1 | MOR07919 (human IgG1) (antibody, V domains shown) VH: QVQLVQSGAEVKKPGESLKISCKGSGYSFTNYWISWVRQMPGKGLEWMGFIYPDDSYTRYSPSFQGQVTISADKSISTAYLQWSSLKASDTAMYYCARFSYRHYLDMDDHWGQGTLVTVSS VL: DIELTQPPSVSVAPGQTARISCSGDSLGSKYVHWYQQKPGQAPVLVIYRDNKRPSGIPERFSGSNSGNTATLTISGTQAEDEADYYCQSYDATEFTYVFGGGTKLTVLG | 87.6 | binds | – | – | –
2 | MOR07919 Fab (Fab, V domains shown, carries two C-terminal tags (FLAG and Strep-tag II); also called Fab MOR07919) VH: QVQLVQSGAEVKKPGESLKISCKGSGYSFTNYWISWVRQMPGKGLEWMGFIYPDDSYTRYSPSFQGQVTISADKSISTAYLQWSSLKASDTAMYYCARFSYRHYLDMDDHWGQGTLVTVSS VL: DIELTQPPSVSVAPGQTARISCSGDSLGSKYVHWYQQKPGQAPVLVIYRDNKRPSGIPERFSGSNSGNTATLTISGTQAEDEADYYCQSYDATEFTYVFGGGTKLTVLG | – | – | 0.27 | 0.98 | –
3 | MOR07923 Fab (Fab, V domains shown, carries two C-terminal tags (FLAG and Strep-tag II); also called Fab MOR07923) VH: QVQLVESGGGLVQPGGSLRLSCAASGFTFNSYSMSWVRQAPGKGLEWVSYISSRSSTTYYADSVKGRFTISRDNSKNTLYLQMNSLRAEDTAVYYCARGYFHGMDYWGQGTLVTVSS VL: DIVLTQSPATLSLSPGERATLSCRASQSVSFDYLGWYQQKPGQAPRLLIYGASNRATGVPARFSGSGSGTDFTLTISSLEPEDFATYYCFQYLIVPFTFGQGTKVEIKR | – | – | 0.02 | 0.07 | –
4 | MOR07924 Fab (Fab, V domains shown, carries two C-terminal tags (FLAG and Strep-tag II); also called Fab MOR07924) VH: QVQLVESGGGLVQPGGSLRLSCAASGFTFNSYSMSWVRQAPGKGLEWVSYISSRSSTTYYADSVKGRFTISRDNSKNTLYLQMNSLRAEDTAVYYCARGYFHGMDYWGQGTLVTVSS VL: DIVLTQSPATLSLSPGERATLSCRASQSVSFDYLGWYQQKPGQAPRLLIYGASNRATGVPARFSGSGSGTDFTLTISSLEPEDFATYYCQQYNINPFTFGQGTKVEIKR | – | – | 0.03 | 0.2 | –

Further binders by falling Kd [4], results first:

Row | Reporter assay IC50 (ng/ml); Elk1 luciferase reporter gene assay in the presence of 100 ng/ml MSP [1] [ng/mL] | binding result [2] | Kd [3] [nM] | Kd [4] [nM] | Kd [5] [nM] | Binder
5 | – | – | – | 0.8 | 0.25 | MOR07692 Fab (Fab, V domains shown, carries two C-terminal tags (FLAG and Strep-tag II); also called Fab MOR07692) VH: QVQLVESGGGLVQPGGSLRLSCAASGFTFNSYSMSWVRQAPGKGLEWVSYISSRSSTTYYADSVKGRFTISRDNSKNTLYLQMNSLRAEDTAVYYCARGYFHGMDYWGQGTLVTVSS VL: DIVLTQSPATLSLSPGERATLSCRASQSVSFDYLGWYQQKPGQAPRLLIYGASNRATGVPARFSGSGSGTDFTLTISSLEPEDFATYYCQQYYNMPYTFGQGTKVEIKR
6 | – | – | 0.04 | 0.13 | – | MOR07926 Fab (Fab, V domains shown, carries two C-terminal tags (FLAG and Strep-tag II); also called Fab MOR07926) VH: QVQLVESGGGLVQPGGSLRLSCAASGFTFNSYSMSWVRQAPGKGLEWVSYISSRSSTTYYADSVKGRFTISRDNSKNTLYLQMNSLRAEDTAVYYCARGYFHGMDYWGQGTLVTVSS VL: DIVLTQSPATLSLSPGERATLSCRASQSVSFDYLGWYQQKPGQAPRLLIYGASNRATGVPARFSGSGSGTDFTLTISSLEPEDFATYYCFQALIMPFTFGQGTKVEIKR
7 | – | – | 0.01 | 0.02 | – | MOR07925 Fab (Fab, V domains shown, carries two C-terminal tags (FLAG and Strep-tag II); also called Fab MOR07925) VH: QVQLVESGGGLVQPGGSLRLSCAASGFTFNSYSMSWVRQAPGKGLEWVSYISSRSSTTYYADSVKGRFTISRDNSKNTLYLQMNSLRAEDTAVYYCARGYFHGMDYWGQGTLVTVSS VL: DIVLTQSPATLSLSPGERATLSCRASQSVSFDYLGWYQQKPGQAPRLLIYGASNRATGVPARFSGSGSGTDFTLTISSLEPEDFATYYCLQYFNPPHTFGQGTKVEIKR

Source: patent US20120034215A1 (Daiichi Sankyo, published 2012)
